This passage reports microtubule-stimulated ATPase activity relative to wild-type OSM-3 (set to 100%) results from PMC11217292.

This test has as its target OSM-3 H207Q mutant, EGFP tagged (C. elegans) (UniProt P46873).
Sequence of UniProt P46873 (P46873 whole entry H207Q): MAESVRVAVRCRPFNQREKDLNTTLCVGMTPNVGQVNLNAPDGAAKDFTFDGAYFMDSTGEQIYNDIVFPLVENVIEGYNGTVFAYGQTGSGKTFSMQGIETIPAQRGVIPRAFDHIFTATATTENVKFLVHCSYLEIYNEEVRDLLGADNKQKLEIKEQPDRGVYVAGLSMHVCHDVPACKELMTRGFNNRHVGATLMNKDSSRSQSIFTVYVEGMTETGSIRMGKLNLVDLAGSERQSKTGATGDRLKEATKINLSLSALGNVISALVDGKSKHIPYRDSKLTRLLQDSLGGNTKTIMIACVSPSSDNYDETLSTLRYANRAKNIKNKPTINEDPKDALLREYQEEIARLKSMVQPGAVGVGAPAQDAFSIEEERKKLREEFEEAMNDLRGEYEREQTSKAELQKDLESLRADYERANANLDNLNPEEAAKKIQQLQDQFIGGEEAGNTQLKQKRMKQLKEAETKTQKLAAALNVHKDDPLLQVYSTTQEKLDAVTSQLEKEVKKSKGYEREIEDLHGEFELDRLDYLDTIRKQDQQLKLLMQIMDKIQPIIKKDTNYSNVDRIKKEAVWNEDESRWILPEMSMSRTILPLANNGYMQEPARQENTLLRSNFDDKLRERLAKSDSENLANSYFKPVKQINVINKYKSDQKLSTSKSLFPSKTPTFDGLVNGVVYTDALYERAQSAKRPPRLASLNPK

microtubules (complex) showed a microtubule-stimulated ATPase activity relative to wild-type OSM-3 (set to 100%) of 18%.
